The DeepSol protein solubility set

assay: soluble on expression in E. coli; label from the status in PepcDB or PDB records

Sequence | soluble on expression in E. coli
MSLGYAFPSILGNLMSKIYQMDAVDWLKTLENCSVDLFITDPPYESLEKYRQIGTTTRLKESKSSSNQWFSVFPNTRFEELFREVYRVLKKGSHFYLFCDQETMFLAKPIAESVGFKFWKPIVWDKCAIGMGYHYRARYEFILFFEKGKRKLNDLSVPDVLEYKRVWKGYPTEKPVELLEVLIRQSSSENEIVADSFFGSGSTLIAANNLSRKYIGCDISSSAHEYFKNRAEGHHHHHH | soluble
MSLHGEKAPFPLTLIHINDLHARFDETNQKSSTCTNSKECIAGIARVYHTIKQLKSEYKTKNPLYLNAGDNFQGTLWYNLLRWNVTAYFIKELPPDAMTLGNHEFDHSPKGLAPYLAELEKMKIPTVVANLEKNGEPALKDSKIARSIVLKVGNRKVGVIGALYDKTHLVAQTGMVTLTNSIEAVRKEAQELKKKNVNIIVVLSHCGLDGDKQLAEEAGDLIDVIVGAHSHSLLLNKDAKVPYDTKYDTIEGDYPLVVKKSNNHTVLITQARSFGKYVGRLTVNFDCEGEVQSWEGYPIYMNNSVKEGHHHHHH | soluble
MSLHGVPFGTVPPMGTIGLIAAMPDEIRPFLRLASPAARLHGGRFPIWRLRVGNDDIVLVESGMGIDRATAATDALVAAASPVAILSFGFGGAALPGLKVGDLAVGMTSWFAGTEGIVLRRGIDRNLAEKLAEELNRICNGVTRGEIITSARILKKGDLAHSLPNGISSPILDMETAAVAEAAHRRGIPIVALRAISDDAEEELSFSLDEFTDDDMAIRPRKVLATIARKPWIIPQLLRLARNSRIAGKRLAQGVLATAEFLSRGEGHHHHHH | not soluble
MSLHIIILSPVMPIWDRGVFCSSFTKLCLARGFHITLLDTLSLFPSHSAFCNNSTVEILPFITEKLKKYFKEPSVLVGFSMAGMLVQILAARLPNVQAVLAVNAPGYPDKPLKRQIGCILTFLKNKDLSGALEILNSFMCPRGGREKRVLWEIPDEQKSVAIERMTRGFTFLLGGDARDEIIKYTGKFLALIGEKSQLATLANQTKSQCLNHEYQVISGAGTRLWDDNPAMTNAIVHKWIDAL | not soluble
MSLHPVSISLSSYGADLVRSRGQASFLPLLAMAGAQRVELREELFAGPPDTEALTAAIQLQGLECVFSSPLELWREDGQLNPELEPTLRRAEACGAGWLKVSLGLLPEQPDLAALGRRLARHGLQLLVENDQTPQGGRIEVLERFFRLAERQQLDLAMTFDIGNWRWQEQAADEAALRLGRYVGYVHCKAVIRNRDGKLVAVPPSAADLQYWQRLLQHFPEGVARAIEYPLQGDDLLSLSRRHIAALARLGQPQEERQHG | soluble
MSLIAHSNEIARPIFKSQDQLFTLYQGDCNEVLPQFENQFDLIFADPPYFLSNDGLSIQSGKIVSVNKGDWDKEDGINGIDEFNYQWINNAKKALKDTGSLLISGTYHNIFSLGCVLQKLDFKILNLITWQKTNPPPNFSCRYLTHSAEQIIWARKSRKHKHVFNYEVLKKINNDKQMRDVWSFPAIAPWEKVNGKHPTQKPLALLVRLLLMASDENSLIGDPFSGSSTTGIAANLLKREFIGIEKESEFIKISMDRKIELDARYKEIRSKIKDLNHQEGHHHHHH | not soluble
MSLIIMKAITVLSGGLDSTVVTLIAKDLGYEVTAITFNYGQRAAKREINSAKKICEILGIEHIVVDLPFVKQFGKSSLITEKEIPTLKMEELDSEKAYETMKAVWVPARNVIMFGIASGFAEALDAEKIFIGINKEEGVTFPDNTIEFVEAFNKVLEYGTLNKVKIEAPLYDKTKEEIVKLGAELEKKLGVEVLKYSYSCYHDNGEDFLHCGKCESCMRRKRAFLMAGVEDKTKYIEEGHHHHHH | soluble
MSLIKDIRTYKLCYEGINDERDALAIKGLAEHPMEIVATEIETSDGYVGYGESLAYGCSDAVQVTIEKILKPLLLKEDEELIEYLWDKMYKATLRFGRRGIAIAGISGVDTALWDIMGKKAKKPIYKLLGGSKRKVRAYITGGYYSEKKDLEKLRDEEAYYVKMGFKGIKVKIGAKSMEEDIERLKAIREVVGEDVKIAVDANNVYTFEEALEMGRRLEKLGIWFFEEPIQTDYLDLSARLAEELEVPIAGYETAYTRWEFYEIMRKRAVDIVQTDVMWTGGISEMMKIGNMAKVMGYPLIPHYSAGGISLIGNLHVAAALNSPWIEMHLRKNDLRDKIFKESIEIDNGHLVVPDRPGLGYTIRDGVFEEYKCKSEGHHHHHH | soluble
MSLIKMQVWKKLFAKSPFKPLIRHAEVVVQTVETLEKALDSWARGDYENMKEYAKKVDDLEDIADKIKSELRDSITSKLLMPVQRTDILEYLHMQDKIADAAEDTAKWLLIKRNLDSIPNDIKDIILKMGKESIKAAKLVYEAIKQLDNVLESGFAEKEIKKEYKIIKQIEEVESKIDGLDSKLMEIVFTSELDWKDGLYILNIARTLSNISDKAKDTAERIRVLMNKEGHHHHHH | not soluble
